Experimental findings from patent publication US20190276551A1 are described below.

The test deals with human CD38 protein immobilised on AR2G biosensor (human) (UniProt P28907). The test can be described thus: Octet BLI, immobilised CD38. For orientation: In BLI a coated tip is dipped into the sample, and binding shifts an interference pattern.

For the substance Daratumumab scFv, the koff (as a rule, the first-order rate constant of dissociation) was found to be 0.0044 s⁻¹.
